Where a chain is given by its changes, count along the chain named. Names and notes keep the numbering of the source.
T1: human MSR1 extracellular domain expressed with a N-terminal nonahistidine tag (His9-hMSR1); R&D Systems, Cat … (human, UniProt P21757 77-451)
T1 construct: extracellular domain; Bought protein; also called His-hMSR1
T1 sequence: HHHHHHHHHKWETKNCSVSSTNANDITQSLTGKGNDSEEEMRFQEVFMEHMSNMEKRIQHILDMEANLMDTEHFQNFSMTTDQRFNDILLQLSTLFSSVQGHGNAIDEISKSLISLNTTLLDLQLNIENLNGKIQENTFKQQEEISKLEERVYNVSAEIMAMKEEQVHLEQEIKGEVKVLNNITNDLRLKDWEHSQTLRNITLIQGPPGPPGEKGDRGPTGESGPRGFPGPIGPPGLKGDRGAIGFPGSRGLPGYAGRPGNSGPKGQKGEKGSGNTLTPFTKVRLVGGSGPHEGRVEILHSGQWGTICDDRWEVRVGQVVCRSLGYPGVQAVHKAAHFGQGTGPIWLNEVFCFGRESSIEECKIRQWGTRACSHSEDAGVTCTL

T2: monkey MSR1 extracellular domain expressed with a N-terminal hexahistidine-myc-myc tag (HMM-mfMSR1) (monkey (Macaca fascicularis))
T2 chain: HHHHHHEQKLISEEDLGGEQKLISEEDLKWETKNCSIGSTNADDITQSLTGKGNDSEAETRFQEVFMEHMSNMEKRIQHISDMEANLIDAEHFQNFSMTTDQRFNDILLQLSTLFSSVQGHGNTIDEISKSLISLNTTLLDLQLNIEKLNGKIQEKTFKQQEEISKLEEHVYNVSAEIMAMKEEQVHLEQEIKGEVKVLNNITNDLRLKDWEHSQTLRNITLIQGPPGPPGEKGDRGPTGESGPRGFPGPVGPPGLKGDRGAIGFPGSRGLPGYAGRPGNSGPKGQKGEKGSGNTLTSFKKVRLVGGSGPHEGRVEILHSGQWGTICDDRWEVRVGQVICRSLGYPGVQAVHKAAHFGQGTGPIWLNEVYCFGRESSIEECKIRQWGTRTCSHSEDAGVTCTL

T3: full length human MSR1 with a C-terminal Myc tag on HEK293.Myc.hMSR1 cells (human, UniProt P21757 1-451)
T3 construct: whole, on cells
T3 sequence (looked up): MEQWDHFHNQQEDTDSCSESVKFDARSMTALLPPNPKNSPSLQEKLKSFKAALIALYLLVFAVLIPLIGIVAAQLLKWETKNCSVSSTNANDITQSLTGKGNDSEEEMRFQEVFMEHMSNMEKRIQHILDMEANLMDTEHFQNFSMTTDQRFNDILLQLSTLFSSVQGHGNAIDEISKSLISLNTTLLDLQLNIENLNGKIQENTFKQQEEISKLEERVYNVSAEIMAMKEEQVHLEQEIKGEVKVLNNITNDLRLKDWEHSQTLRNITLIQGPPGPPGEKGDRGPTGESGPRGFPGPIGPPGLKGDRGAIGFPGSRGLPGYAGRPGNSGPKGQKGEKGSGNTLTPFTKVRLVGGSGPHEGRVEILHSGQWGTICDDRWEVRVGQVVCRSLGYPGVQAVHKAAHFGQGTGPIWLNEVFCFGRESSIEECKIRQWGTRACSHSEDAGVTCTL

T4: mouse MSR1 on RAW264.7 cells (mouse, UniProt P30204 1-458)
T4 construct: whole, on cells
T4 sequence (looked up): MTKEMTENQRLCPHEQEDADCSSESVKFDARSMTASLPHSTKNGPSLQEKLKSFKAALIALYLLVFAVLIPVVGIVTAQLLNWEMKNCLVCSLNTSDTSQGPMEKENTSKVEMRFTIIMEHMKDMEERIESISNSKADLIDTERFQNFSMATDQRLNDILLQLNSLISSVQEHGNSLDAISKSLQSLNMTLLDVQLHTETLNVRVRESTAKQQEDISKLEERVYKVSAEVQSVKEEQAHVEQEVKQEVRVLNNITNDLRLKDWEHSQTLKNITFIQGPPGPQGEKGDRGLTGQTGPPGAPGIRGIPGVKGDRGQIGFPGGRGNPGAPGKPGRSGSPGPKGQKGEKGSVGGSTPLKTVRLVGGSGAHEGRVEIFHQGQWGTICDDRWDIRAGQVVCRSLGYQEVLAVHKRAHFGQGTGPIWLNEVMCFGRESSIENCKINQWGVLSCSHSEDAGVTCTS

T5: full length monkey MSR1 on HEK293.mfMSR1 cells (Macaca fascicularis, UniProt A0A2K5UWE2 1-451)
T5 construct: whole, on cells
T5 sequence: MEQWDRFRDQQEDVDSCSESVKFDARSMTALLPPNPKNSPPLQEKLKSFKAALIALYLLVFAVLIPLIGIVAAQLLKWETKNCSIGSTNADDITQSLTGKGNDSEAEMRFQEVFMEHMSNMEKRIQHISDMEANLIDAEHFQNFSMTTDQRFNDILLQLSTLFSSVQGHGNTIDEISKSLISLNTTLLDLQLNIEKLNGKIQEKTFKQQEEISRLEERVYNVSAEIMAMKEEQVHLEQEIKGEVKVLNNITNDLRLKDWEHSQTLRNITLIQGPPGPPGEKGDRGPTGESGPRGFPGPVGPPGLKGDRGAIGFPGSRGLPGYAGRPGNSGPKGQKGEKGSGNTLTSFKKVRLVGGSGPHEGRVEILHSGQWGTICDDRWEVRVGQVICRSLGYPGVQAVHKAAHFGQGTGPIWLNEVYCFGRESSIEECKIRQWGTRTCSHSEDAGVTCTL

B1: H1H27729P-N297Q (antibody, V domains shown)
VH: QVQLVESGGGLVKPGGSLRLSCAASGFIFSDYYMSWIRQAPGKGLEWVSYISSSGTTIYGDSVKGRFTMSRDNAKNSLYLQMNSLRAEDTAVYYCARNYALFDYWGQGTLVTVSS
VL: DIQMTQSPSSLSASVGDRVTITCQASQDISKYLNWYQQKPGKAPKLLIYYTSNLETGVPSRFSGSGSGTDFTFTISSLQPEDIATYYCHQSDYLPFTFGPGTKVDIKR
notes: human IgG1 Fc with N297Q point mutation
B2: H1H27731P-N297Q (antibody, V domains shown)
VH: QLQLQESGPGLVKPSETLSLTCTVSGGSISRISYYWGWIRQPPGKGLEWIGSIYDSGSTYYNPSLKSRVTISIDTSKNQFSLKLSSVTAADTAVYYCVRYSSSSAFAFDYWGQGTLVTVSS
VL: DIQMTQSPSSVSASVGDRVTITCRASQGISSWLAWYQQKPGKAPKLLIYAASSLQSGVPSRFSGSGSGTDFTLTISSLQPEDFATYYCQQANSFPFTFGPGTKVDIKR
notes: as for B1
B3: H1H27734P-N297Q (antibody, V domains shown)
VH: EVQLVESRGGLVQPGGSLRLSCAASGFTFSSYAMSWVRQAPGKGLEWVSAISGSGGSTFYADSVKGRFTISRDNSKNTVYLQMNSLRAEDTAVYYCAKALVLRFLEWLGDYWGQGTLVTVSS
VL: DIQMTQSPSTLSASVGDRVTITCRASQSISSWLAWFQQKPGKAPKLLIYKASSLESGVPSRFSGSGSGTEFTLTISSLQPDDFATYYCQQYKSYWTFGQGTKVEIKR
notes: as for B1
B4: H1H27739P-N297Q (antibody, V domains shown)
VH: EVQLVESGGGLVQPGGSLRLSCTASGFTFSSYAMSWVRQAPGKGLEWVSAISGTGSSTYFTDSVKGRFAISRDNSKNTLYLQMNSLRAEDTAVYYCAKDGEWLSTVTLFDYWGQGTLVTVSS
VL: EIVMTQSPATLSVSPGERATLSCRASQSVSSNLAWYQQKPGQAPRLLIYGASTRATGIPARFSGSGSGTDFTLTISSLQSEDFALYYCQQYFIWPPHPTFGPGTKVDIKR
notes: as for B1
B5: H1H27747P-N297Q (antibody, V domains shown)
VH: QVQLVESGGAVVQPGRSLRLSCAASGFTFSYYGMHWVRQAPGKGLEWVAVISYDGSKKYYADSVKGRFTISRDNSKNTLYLQMNSLRAEDTAVYYCAKDLTVDFYYGMDVWGQGTTVTVSS
VL: B2 VL with A51T, V58A, Y87F, F96Y, P100Q, V104L, D105E
notes: as for B1
B6: H1H27751P-N297Q (antibody, V domains shown)
VH: EVQLVESGGGLVQPGGSLRLSCAASGFTFSNYAMHWVRQAPGKGLEYVSAISSNGGSTYYADSVKGRITISRDNSKNTLYLQMGSLRAEDMAVYYCARGRPYYYYFGMDVWGQGTTVTVSS
VL: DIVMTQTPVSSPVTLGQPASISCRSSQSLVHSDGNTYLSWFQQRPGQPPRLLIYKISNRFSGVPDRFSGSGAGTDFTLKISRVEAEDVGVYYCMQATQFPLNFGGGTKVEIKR
notes: as for B1
B7: H1H27761P2-N297Q (antibody, human IgG1, V domains shown)
VH: EVQLVESGGDLVQPGGSLRLSCSASGFTFNIYAMSWVRQAPGKGLEWVSGISGSGGSTYYADSVKGRFTISRDNSKNTLYFQMNSLRVEDTAVYYCAKKISSSSYYYYAMDVWGQGTTVTVSS
VL: not shown
notes: human IgG1 Fc with N297Q; also called H1H27761P-N297Q
B8: H1H27762P2-N297Q (antibody, human IgG1, V domains shown)
VH: QVQLVQSGAEVKKPGSSVKVSCKASGGTFSRYDISWVRQAPGQGLEWMGGIIPIFGTSNYAQKFQGRVTITTDESTSTVYMELSSLRSEDTAVYYCARGGRYGWFDPWGQGTLVTVSS
VL: not shown
notes: human IgG1 Fc with N297Q; also called H1H27762P-N297Q
B9: H1H27766P2-N297Q (antibody, human IgG1, V domains shown)
VH: EVQLVESGGGLVQPGGSLRLSCAASGFTFSSFAMSWVRQAPGKELEWVSSISGRGGSTYYADSVRGRFTISRDNSKITLYLQMNSLRAEDTAVYYCAKDIVFRYTSSAYWYFDLWGRGTLVTVSS
VL: not shown
notes: human IgG1 Fc with N297Q; also called H1H27766P-N297Q

What was measured:
[1] = target: T1, human MSR1 extracellular domain …; assay: SPR Biacore, 25C, mAb captured by anti-human Fc, MSR1 as analyte;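 further: Half-life of complex dissociation derived from kinetic rates, obtained by fitting Biacore 4000 sensorgrams to a 1:1 model including mass transport, run in HBS-ET buffer at pH 7.4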
Procedure: (§1) Binding affinities and kinetic constants of human anti-MSR1 antibodies for different MSR1 reagents were determined by real-time surface plasmon resonance (Biacore 4000). All binding studies were performed in 10 mM HEPES, 150 mM NaCl, 3 mM EDTA, and 0.05% v/v Surfactant Tween-20, pH 7.4 (HBS-ET) running buffer at 25° C. and 37° C.
(§2) The association rate (kₐ) and dissociation rate (kd) were determined by fitting the real-time binding sensorgrams to a 1:1 binding model with mass transport limitation using Scrubber 2.0 c curve-fitting software.

[2] = target: T2, monkey MSR1 extracellular domain …; assay: as above
Procedure: as §1, §2

[3] = target: T3, full length human MSR1 with a …; assay: ECL cell binding, HEK293.Myc.hMSR1
Procedure: (§3) All cells were washed once with 1×PBS with Ca²⁺/Mg²⁺ and counted with a Cellometer™ Auto T4 cell counter (Nexcelom Bioscience). Approximately 1.0×10⁴ cells were seeded separately onto 96-well carbon electrode plates [MULTI-ARRAY high bind plate, Meso Scale Diagnostics] and incubated for 1 hour at 37° C. Non-specific binding sites were then blocked by 2% BSA (w/v) in PBS with Ca²⁺/Mg²⁺ for 1 hour at room temperature. THP-1 cells were pre-incubated for 0.5 hours at room temperature in sample dilution buffer with: 1) 1 mg/mL Fc receptor block reagents to block Fc gamma receptors on THP-1 cell surface [whole molecule human IgG (Jackson Immunoresearch, Cat #009-000-003) for wells being tested with anti-MSR1-mFc antibodies or 2) whole molecule mIgG (Jackson Immunoresearch, Cat #015-000-003) for wells being tested with anti-MSR1-hFc antibodies. Antibody binding on HEK293.Myc.hMSR1, HEK293.mfMSR1 and HEK293 cells was tested without Fc receptor block reagents. […] Plates were then washed to remove unbound antibodies an AquaMax2000 plate washer with a cell washing head (MDS Analytical Technologies). […] Plates were washed and developed with Read Buffer (Meso Scale Diagnostics, Cat #R92TD-2) according to manufacturer's recommended procedure and luminescent signals were recorded with a SECTOR Imager 600 (Meso Scale Diagnostics). Luminescence intensity, measured in relative light units (RLU), was recorded to indicate the binding intensity of each antibody at the range of concentrations.

[4] = target: T4, mouse MSR1 on RAW264.7 cells; assay: flow cytometry, RAW264.7 cells, 10 ug/mL;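 further: antibodies bound to RAW264.7 cells for 30 min on ice after Fc block with mouse IgG, S/N is MFI relative to unstained cells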
Procedure: To block binding to Fc receptors, RAW264.7 cells were incubated for 30 minutes at 4° C. with 500 μg/mL mouse IgG (Jackson ImmunoResearch, Cat #015-000-003) diluted in staining buffer, while B16F10.9 cells remained in staining buffer. Following Fc receptor blocking, 10 μg/mL of anti-MSR1 antibodies or an isotype control antibody were added to the cells and were subsequently incubated for 30 minutes on ice. […] The signal to noise (S/N) was determined by calculating the ratio of the anti-MSR1 antibodies or the control antibodies MFI to the unstained sample MFI (Table 16).

[5] = target: T5, full length monkey MSR1 on …; assay: ECL cell binding, HEK293.mfMSR1
Procedure: as §3

Binder	t½ [1] [min]	t½ [2] [min]	binding signal ratio to isotype control (11 nM) [3] [fold]	MFI [4]	S/N [4]	binding signal ratio to isotype control (11 nM) [5] [fold]
B1	11	5				
B2	515	247				
B3	10	4				
B4	11	80				
B5		13				
B6	38	15				
B7			23	3840	1	15
B8			33	3520	1	25
B9			20	3810	1	13
